According to the supplement of paper PMC9170038:

Legend:
MS2 coat protein [1] = experiment: apparent KD of MS2 coat protein; designed switch direction (-1 OFF switch, 1 ON switch): 1; higher = weaker reporter binding; settings: Eterna round: R98
Protocol: (§1)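 RNA-MaP: designed FMN/MS2 RNA switches (84 nt design region) are transcribed on-chip within common flanks and titrated with SNAP-549-labelled MS2 coat protein (about 1-3000 nM) in 100 mM Tris pH 7.5, 80 mM KCl, 4 mM MgCl2, without or with 200 uM FMN. Median apparent KD per design; activation ratio = KD,OFF / KD,ON.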

MS2 coat protein [2] = experiment: apparent KD of MS2 coat protein; designed switch direction (-1 OFF switch, 1 ON switch): -1; higher = weaker reporter binding; settings: Eterna round: R98
Protocol: as §1

MS2 coat protein [3] = experiment: apparent KD of MS2 coat protein; higher = weaker reporter binding; settings: Eterna round: R101
Protocol: as §1

Row | Sequence | apparent KD of MS2 coat protein (MS2 coat protein [1]; input ligand: FMN 200 uM) [µM] | apparent KD of MS2 coat protein (MS2 coat protein [1]; input ligand: none) [µM] | apparent KD of MS2 coat protein (MS2 coat protein [3]; input ligand: FMN 200 uM) [µM] | apparent KD of MS2 coat protein (MS2 coat protein [3]; input ligand: none) [µM] | other results
1 | GGAUCCAUCACAGGAUAUGCUGGACUUUGUCCAGCAGAAGGGUGAAACAUGAGGAUCACCCAUGUAAAGGAUCCUAUAUUUAAU [Denovo 26] | 0.0343 | 0.291 |  |  | 
2 | GAUUACUUCACAGGAUAUAAAAUAAAGCAGAUUUUAGAAGGGUGAGCCUCGUCGACCGCGACAUGAGGAUCACCCAUGUUGUGU [Bitetiqu] | 0.0508 | 0.0293 |  |  | 
3 | AAAACAUGAGGAUCACCCAUGUAUAGAACGGUUAAUAAAAGUGAGGAUAUACUAAAUUUUAUAUAGUAGAAGGCACUGGGUACU [JR_SSNG3_Sub010] | 0.0247 | 0.0171 |  |  | 
4 | GCGUGUGGAUCAGGAUAUUACAUGAGGAUCACCCAUGUAGGCAUGAGGGUCACCCGUGUUGUGUGUAAGAAGGGAUCGCCCGUG [Exclusion2] |  |  |  |  | apparent KD of MS2 coat protein (MS2 coat protein [2]; input ligand: FMN 200 uM): 0.0741 µM; apparent KD of MS2 coat protein (MS2 coat protein [2]; input ligand: none): 0.046 µM
5 | GUAGCUAUCGGAGGAUAUUCAUAGCGGAAACGCACAUGAGGAUCACCCAUGUGGCGAAAGCCUUGGGAGAAGGCCGAUAGCUAC [jl-sng2-2.30 Eli mod] | 0.0177 | 0.0993 |  |  | 
6 | GUAGCUAUCGCAGGAUAUCCUCAGGCGAAAGCCACAUGAGGAUCACCCAUGUAAUUAAAGAAAUUGGAGAAGGGCGAUAGCUAC [jl-sng2-2.38 Eli mod] | 0.0364 | 0.571 |  |  | 
7 | CAUAUAUGGUGAGGAUAUGCAAAGGAUCACCUUGUAGAAGGCAUCAGGGUAGAAGGUGCAAGGAUCACCUGUAAGGAUAUAUCC [pwkr2 ssNG1 DX.26] | 0.412 | 1.63 |  |  | 
8 | AAGUGAAAUCAGAAGGGCUCCAGCAAAGCUGGAGCAGGAUAUGAGGAUCACCCAUGUCACCUGACGGUCGAAACGACCGUCAGG [#SharedSequence - IExNG1: 6-2] (puzzle (switch architecture): Inverted Exclusion NG 1) |  |  | 0.521 | 0.0569 | 
9 | GUAGCAUACCGAGGAUAUUCAUAUAAUAAAUAAACAUGAGGACCACCCAUGUGGCGAAAGCCUUGGGAGAAGGCGGAAUGCUAC [Xeonanis 20 - mod55 1] | 0.0709 |  |  |  | 
10 | CCCUUUAGAAAAGGGACAUGAGGAUCACCCAUGUAGGCUGCACAGGAUAUCGAUCGGAGGCGGUACGAGAAGGGUGACGUCAUU [Zaarqu] | 0.064 | 0.0523 |  |  | 
11 | AAAAUGAUUUUAGGAUAUGACUCCGAAACGGAGUCAGAAGGAGGAUCACCCUUUCAAAGCUCAGCGUCGAAAGACGCUGAGCAA [#SharedSequence - ExNG1-20] (puzzle (switch architecture): Exclusion NG 1) |  |  | 1.2 | 0.201 | 
12 | GCGGAGGGCACAGGAUAUCGUCCUUAGUUGGUACGAGAAGGGUGGCGCUGCCACAUGAGGAUCACCCAUGUGCCCAAACUAUAG [Eresgeises] | 0.639 | 0.211 |  |  | 
13 | GCUUGCGACGCAGGAUAUGGGUGCCUAAACACGAGGAUCACCCGUGUACAGGAAGCGAAAAGCUCUCAGAAGGGCGUCGCAGGC [United States 8 - Jieux - Same State NG 2] | 0.0172 | 0.0226 |  |  | 
14 | ACAGGUCGUGAGAAGGCGGAAAGCACCGUCGAAAGACGGUGCAAUUAAGAUCUUCGAGGAUCACCCGAGGAUAUCACGACCUGA [#SharedSequence - IExNG2: 15] (puzzle (switch architecture): Inverted Exclusion NG 2) |  |  | 0.654 | 0.0751 | 
15 | AGGAGAAAUGUAGGAUAUAUAUAUAUAUAUAGGCAAAGCGUAUAUAUAUAUAUAGAAGGACAUGAGGAUCACCCAUGUUUCCCU [#Lowering the energy 12] (puzzle (switch architecture): Small Loop Exclusion NG 1) |  |  | 0.00942 | 0.0102 | 
16 | UUCACGGCGGGAAUAAGUGGUACUCAGGAUAUGGACUAGAAAUACAUGAGGAUCACCCAUGUGUUCCAGAAGGGAGGGCAUGCG [Tisorabea] (puzzle (switch architecture): Small Loop Same State NG 3) |  |  | 0.0103 | 0.0456 | 

Row | Sequence | apparent KD of MS2 coat protein (MS2 coat protein [1]; input ligand: FMN 200 uM) [µM] | apparent KD of MS2 coat protein (MS2 coat protein [1]; input ligand: none) [µM] | apparent KD of MS2 coat protein (MS2 coat protein [3]; input ligand: FMN 200 uM) [µM] | apparent KD of MS2 coat protein (MS2 coat protein [3]; input ligand: none) [µM] | other results
17 | AAGAUACUUACAGGAUAUAGGGCAGAGGGUGCCCUAGAAGGGUGAACAUGAGGAUCACCCAUGUAUGUAUCUGAUUAGAAGGCA [Lezaraoren] | 0.119 | 0.0732 |  |  | 
18 | CCUGCACUUCAAGGAUAUCCAGUCGUUUCGACUGGAGAAGGUGAGGAUCACCCAUCUAGCCUGACGUUUGUCAGGCAUGCAGGU [#AddUracilToBrourdLoops 7 - Jieux - Exclusion NG1] (puzzle (switch architecture): Exclusion NG 1) |  |  | 0.0817 | 0.0843 | 
19 | CGCGAACAGUUUUAAAAGAGGAUCACCCAUGUGGACUCAUGGUAGGAUAUCGGGAAGGAGGAAACCGAGAAGGGCUGGUGAGCC [salish99_SSNG3_019 #HINGE] (puzzle (switch architecture): Same State NG 3) |  |  | 0.018 | 0.0375 | 
20 | GCAGCUAAUGCAGGAUAUCAGCACGUGUAGUGCUGAGAAGGGCACAUGAGGAUACUGACUGUGAUCAAUUAAUAUUAAUGCUGC [salish99#hingeEx3_55-58_004] (puzzle (switch architecture): Exclusion NG 1) |  |  | 0.00919 | 0.0635 | 
21 | ACAUACAUUCGAGGAUAUCGGUGAACAAAUUAACGAGAAGGCGAUAUAAUUUUUAAUCUUAUAAACAUGAGGAUCACCCAUGUA [JR_SSNG1_Sub001] | 0.017 | 0.0209 |  |  | 
22 | AAGCACGAAGAUUAUUAUGAAUAAACAUGAGGAUCACCCAUGUAGGAUAUCGACUCGAAUAGAGUCGAGAAGGACAAAACGUGC [#BasePairInsertion1E] (puzzle (switch architecture): Exclusion NG 3) |  |  | 0.0116 | 0.00696 | 
23 | GCUGCUAUCGCAGGAUAUUACAUGGGAAAGAAUACAUGAGGAUCACCCAUGUAAAAGAUCGUAAAUAAGAAGGGCGAUAGCAGC [Lame State 5 - Jieux - Same State NG 2] | 0.353 | 0.329 |  |  | 
24 | AAAACAUGAGGAUCACCCAUGUAUAGAUCGAUUAUUAGGAGUGAGGAUAUGCAAGUUAUAAGGAAGCAGAAGGCACAGGGAAAA [JR_SSNG3_Sub073] | 0.0232 | 0.0239 |  |  | 
25 | AGUGUCAUCGAGAAGGCCUCAAAAUGAGGAUCACCCAUGUUGUAAUAUGGGAGGAUAUCGAUGAUACAGCUACGUUUCGUAGCA [salish99_InSLSSNG1_020 #HINGE] (puzzle (switch architecture): Inverted Small Loop Same State NG 1) |  |  | 0.0589 | 0.0983 | 
26 | GCAGCUAAUGCAGGAUAUCAGCACGUGUAGUGCUGAGAAGGGCACAUGAGGAUACCGACUGUGAUCAAUUAAUAUUAAUGCUGC [salish99#hingeEx3_55-58_003] (puzzle (switch architecture): Exclusion NG 1) |  |  | 0.00687 | 0.00943 | 
27 | AAAAUAAAGGCAGGAUAUACAUGAAUAAAUAAAAUAAUAUAAAAUAAAACAUGAGGAUCACCCAUGUAGAAGGGCCAAAAUAAA [LRO022_Exclusion NG 2] |  |  |  |  | apparent KD of MS2 coat protein (MS2 coat protein [2]; input ligand: FMN 200 uM): 0.187 µM; apparent KD of MS2 coat protein (MS2 coat protein [2]; input ligand: none): 0.0833 µM
28 | AAAUGAUAUCAGAAGGCGUGGACGAAACGUCCACGAGGAUAUGAGGAUCACCCAUGUCAGGUCAGCCUGCAAAGCAGGCUGACC [#SharedSequence - IExNG1: 7-4] (puzzle (switch architecture): Inverted Exclusion NG 1) |  |  | 0.562 | 0.0503 | 
29 | CAGUCGACCAUAACAAGGUCGACUGACUUCUGAGGAUCACCCAGAAGGCGUCACCUAAUAGGUGACGAGGAUAUGGAGUGUAAA [#SharedSequence IExNG# - 7] (puzzle (switch architecture): Inverted Exclusion NG 3) |  |  | 0.0927 | 0.032 | 
30 | AGCGGUGCGUGUGUUGUGACACAUGAGGAUCACCCAUGUAGGAAGGAUAUGCAGUUGGGCACGCGGCAGAAGGUCCGACAUGGA [Riuscein] |  |  |  |  | apparent KD of MS2 coat protein (MS2 coat protein [2]; input ligand: FMN 200 uM): 0.0586 µM; apparent KD of MS2 coat protein (MS2 coat protein [2]; input ligand: none): 0.529 µM
31 | GGACUCACUUGAGGAUAUCGAGUGGAAUACACUCGAGAAGGCAGGGAAACCUGAGGAUCACCCAGGUAAGAGUCCAAUAAUAAA [Same State NG1 - A3C, U17G Submission 2C] | 0.0187 | 0.0434 |  |  | 
32 | GGACUCACUUGAGGAUAUCGAGUGGAUAACACUCGAGAAGGCAGGAAAACCUGAGGAUCACCCAGGUAAGAGUCCAAUAAUAAU [Same State NG1 - A3C, U17G Submission 3D] | 0.0144 | 0.0132 |  |  | 
